From article PMC3674325 come the findings set out here.

Series [1] concerns the target T1, APOBEC3A (A3A) wild-type (Homo sapiens, UniProt P31941 1-199). Put plainly: EMSA. A general note: Mobility shift assays separate free from complexed probe on a gel.
The target in series [2] is T1, APOBEC3A (A3A) wild-type. Description: NMR titration.
For series [3], the target named is T1, APOBEC3A (A3A) wild-type. Put plainly: NMR titration. The source holds these as a separate data set.
The target of series [4] is APOBEC3A E72Q (Homo sapiens, UniProt P31941 1-199, E72Q). Description: NMR titration.
APOBEC3A E72Q, sequence (P31941 whole entry E72Q): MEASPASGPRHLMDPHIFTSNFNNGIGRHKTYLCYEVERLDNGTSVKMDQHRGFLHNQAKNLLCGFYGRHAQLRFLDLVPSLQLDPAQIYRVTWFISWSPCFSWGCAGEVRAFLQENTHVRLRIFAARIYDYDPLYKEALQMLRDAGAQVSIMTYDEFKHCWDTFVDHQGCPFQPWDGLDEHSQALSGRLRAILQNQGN

T1 sequence (P31941 whole entry): as the sequence (P31941 whole entry E72Q) above, with Q72E counted along it

Consider AUUAUUAUUAUUAUUAUUAUUUCAUUUAUUUAUUUAUUUA (ssRNA) [40-nt ssRNA JL931], for which the “apparent K (half saturation)” value in series [1] was ~40 µM.

Broadly, the Kd is the constant that tells how readily two partners part at equilibrium. Low values mean a tighter complex, high ones a looser complex. AAACCCAAA (ssDNA, C deaminated to dU during titration) [AAACCCAAA (value is for dU-containing product)]: binding in series [2] was characterised by a dissociation constant (Kd) of 91 ± 15 µM.

TCATTT (ssDNA, C at position 2 converted to dU during titration) [TCATTT (6-nt; value is for dU product)] gave a Kd in series [2] of 194 ± 18 µM.

AAACAAAAA (ssDNA, C deaminated to dU during titration) [AAACAAAAA (value is for dU-containing product)] yielded a Kd in series [2] of 161 ± 19 µM.

On to AAACCAAAA (ssDNA, C deaminated to dU during titration) [AAACCAAAA (value is for dU-containing product)], for which binding in series [2] was put at a Kd of 94 ± 11 µM.

In turn, ATTTUATTT (ssDNA, dU at position 5) [ATTTUATTT (9-nt product)] had a Kd in series [3] of 58 ± 8 µM.

ATTATTTCATTTATT (ssDNA) [ATTATTTCATTTATT (15-nt substrate)] displayed a Kd in series [4] of 55 ± 11 µM.

Turning to ATTATTATTATTATTATTATTTCATTTATTTATTTATTTA (ssDNA) [40-nt ssDNA JL895], the Kd in series [1] is ~80 µM.

As for ATTATTTUATTTATT (ssDNA, dU at position 8) [ATTATTTUATTTATT (15-nt product)], in series [3], the Kd stood at 57 ± 11 µM.
